Data reported in US12673132B2, “Extrusion printing of biocompatible scaffolds” (William Marsh Rice University, priority 2020, dated 2026).
No end group written: not given here.

Columns and labels:
[1] = microCT physical characterization of 3D printed PCL constructs; assay type: physicochemical; conditions: melt-extruded 4-layer crosshatch scaffold
Method: The 3D printed PCL constructs were fabricated by melt extrusion with an EnvisionTEC 3D Bioplotter Manufacturer (Gladbeck, Germany). The polymer of interest was placed in a metal cartridge, heated to 85-95° C., and extruded through a 27G needle at 4.9-5.1 bar pressure, 4.0 mm/s deposition speed, and 0.4 s pre-flow and post-flow, with imaging after each layer. Constructs were printed as a cylindrical, alternating crosshatch pattern with 4 layers of 5 mm diameter and 220 μm thickness, producing scaffolds with total dimensions of 5 mm diameter and 0.88 mm height. The porosity, average fiber diameter, and average pore diameter of each construct was assessed by microcomputed tomography (μCT) using a Bruker SkyScan 1272 (Billerica, MA). Scans were acquired at a voltage of 40 kV and a current of 250 μA, with a rotation step size of 0.4°, 8 μm/pixel, frame averaging of 6, and random movement of 10. Reconstruction, slicing, and analysis were performed in Bruker NRecon and CTAn software (Billerica, MA) and LabView (Austin, TX). For quantification of physical architectural properties, a proportional volume of interest was set at 75% scale of the x, v, and z axes, equally spaced from the scaffold edges.

[2] = tested on: Rat bone marrow derived MSCs; test: PicoGreen assay (DNA content) of MSC-seeded printed scaffolds; assay type: cell-based; conditions: osteogenic and osteochondral media, up to 28 days, FIG. 5A
Description: (§1) Rat bone marrow derived MSCs (mesenchymal stem cells) were harvested by aspiration of bone marrow from the tibia of five 6-8 week old male Fischer 344 rats from Charles River Laboratories (Wilmington, MA), in accordance with protocols approved by the Rice Institutional Animal Care and Use Committee and in agreement with the animal care and use guidelines set forth by the National Institutes of Health. Cells from all rats were pooled to minimize inter-animal variability. Adherent cells were cultured in growth medium (DMEM with 10% v/v FBS and 1% v/v antibiotic-antimycotic) inside a humidified incubator at 37° C. and 5% CO2, and cryopreserved in liquid N2 until point of usage. All MSCs were used at Passage 3. Printed constructs were sterilized by exposure of both sides to UV light for 3 h, immersion in a sterile gradient (100%, 75%, 50%, 25%, 0%) of ethanol and PBS, and two additional washes in PBS. […] After weighing, each scaffold was frozen at −20° C. until ready for characterization. […] After homogenization, the proteinase K and acetic acid suspensions were allowed to digest for 16 h at 65° C. and room temperature, respectively, followed by quantification of biochemical content using assay kits. […] The bioactivity of PCL-peptide composites was determined by seeding MSCs on 3D printed constructs and investigating their ability to promote bone- and cartilage-specific ECM deposition in vitro. […]

[3] = tested on: Rat bone marrow derived MSCs; test: DMMB assay (cartilage-specific sulfated glycosaminoglycans) of MSC-seeded printed scaffolds; assay type: cell-based
Description: as §1, with “PBS. MSCs were seeded on the scaffolds by pipetting 30 μL of a 3.3×10^6 cells/mL suspension on top of each scaffold in a low-attachment 24-well plate. After 2 h, 970 μL of growth medium was gently added to each well. After 24 h of cell attachment, the growth medium was replaced with either chondrogenic, osteogenic, or osteochondral medium. Parallel chondrogenic (PCL-alkyne, PCL-NC) and osteogenic (PCL-alkyne, PCL-GHK) studies were conducted, in which scaffolds were cultured in both tissue-specific medium as well as mixed osteochondral medium.” for “PBS.”

[4] = tested on: Rat bone marrow derived MSCs; test: Arsenazo III assay (bone-specific mineralization) of MSC-seeded printed scaffolds; assay type: cell-based; conditions: mixed osteochondral medium
Description: as §1

Substance | Average Fiber Diameter [1] [μm] | Average Pore Diameter [1] [μm] | Porosity [1] [%] | DNA content normalized to scaffold mass (cell proliferation) [2] | sGAG content normalized to cellular content (sGAG deposition per cell) ([3]; chondrogenic medium, up to day 28, FIG. 5D) | sGAG content normalized to cellular content (sGAG deposition per cell) ([3]; mixed osteochondral medium, over time, FIG. 5D) | sGAG content normalized to scaffold mass ([3]; serum-free chondrogenic medium, FIG. 5E) | Bone-specific calcium content normalized to cellular content (mineralization per cell) ([4]; FIG. 5B) | Bone-specific calcium content normalized to scaffold mass (scaffold mineralization) ([4]; FIG. 5C)
PCL-BMPm: PCL-alkyne click-conjugated to azide-terminated bone morphogenetic protein mimetic peptide (SEQ ID NO: 1, GGGRHVRISRSL) (GGGRHVRISRSL-NH2; not fully specified (N-terminus); also: N-terminal azide click-conjugated to PCL-alkyne) | 262 ± 48 | 419 ± 37 | 70.7 ± 4.2 |  |  |  |  |  | 
PCL-NC: PCL-alkyne click-conjugated to azide-terminated N-cadherin peptide (SEQ ID NO: 3, GGGHAVDI) (GGGHAVDI-NH2; not fully specified (N-terminus); also: N-terminal azide click-conjugated to PCL-alkyne) | 200 ± 9 | 432 ± 31 | 71.8 ± 3.7 | statistically lower proliferation | large spike in cartilage-specific sGAG deposition per cell by day 28 | maintained a constant level of sGAG deposition per cell | statistically significant increase in mass-normalized sGAG content | greater mineralization per cell | did not produce statistically significant effects on scaffold mineralization
